Common to all, as to assay: cell-based or functional assay
In experiment [1] the target is HIV-1 ADA Env (HIV-1 ADA).
The target of experiment [2] is HIV-1 APV6 envelope glycoprotein (Env) on pseudovirus (HIV-1 isolate APV6 (clade B)).
Experiment [3] addresses HIV-1 Env of isolate APV17 (HIV-1).
Experiment [4] has as its target HIV-1 Env of isolate APV6 (HIV-1).
Experiment [5] addresses HIV-1 Env of isolate CAAN.A2 (HIV-1).
Experiment [6] concerns the target HIV-1 Env of isolate MG RM-D-002 (clade D), on pseudovirus (HIV-1).
Experiment [7] has as its target HIV-1 Env of isolate MG RM-D-012 (clade D), on pseudovirus (HIV-1).
Experiment [8] concerns the target HIV-1 Env of isolate MG RM-D-014 (clade D), on pseudovirus (HIV-1).
In experiment [9] the target is HIV-1 Env of isolate MG RM-D-016 (clade D), on pseudovirus (HIV-1).
The target in experiment [10] is HIV-1 Env of isolate MG RM-D-019 (clade D), on pseudovirus (HIV-1).
The target in experiment [11] is HIV-1 Env of isolate MG RM-D-020 (clade D), on pseudovirus (HIV-1).
For experiment [12], the target named is HIV-1 Env of isolate MG RM-D-024 (clade D), on pseudovirus (HIV-1).
The target of experiment [13] is HIV-1 Env of isolate MG RM-D-026 (clade D), on pseudovirus (HIV-1).
The target in experiment [14] is HIV-1 Env of isolate MG RM-D-028 (clade D), on pseudovirus (HIV-1).
Experiment [15] addresses HIV-1 Env of isolate MGRM-C-026 (clade C pseudovirus) (HIV-1).
The target of experiment [16] is HIV-1 Env of isolate MGRM-C-028 (clade C pseudovirus) (HIV-1).
Experiment [17] concerns the target HIV-1 Env of isolate MGRM-Chronic-B-002 (HIV-1).
For experiment [18], the target named is HIV-1 Env of isolate MGRM-Chronic-B-004 (HIV-1).
The target of experiment [19] is HIV-1 Env of isolate MGRM-Chronic-B-010 (HIV-1).
Experiment [20] concerns the target HIV-1 Env of isolate MGRM-Chronic-B-017 (HIV-1).
The target in experiment [21] is HIV-1 Env of isolate MGRM-Chronic-B-018 (HIV-1).
For experiment [22], the target named is HIV-1 Env of isolate MGRM-F1-012 (clade F), on pseudovirus (HIV-1).
For experiment [23], the target named is HIV-1 Env of isolate MGRM-F1-020 (clade F pseudovirus) (HIV-1).
Experiment [24] deals with HIV-1 Env of pseudovirus 92RW008 (subtype A) (HIV-1).
Experiment [25] concerns the target HIV-1 Env of pseudovirus 92UG031 (subtype A) (HIV-1).
Experiment [26] concerns the target HIV-1 Env of pseudovirus 92WR009 (subtype A) (HIV-1).
The target in experiment [27] is HIV-1 Env of pseudovirus 92WR020 (subtype A) (HIV-1).
Experiment [28] has as its target HIV-1 Env of pseudovirus 92WR024 (subtype A) (HIV-1).
For experiment [29], the target named is HIV-1 Env of pseudovirus 92WR026 (subtype A) (HIV-1).
The target in experiment [30] is HIV-1 Env of pseudovirus MGRM-A-003 (subtype A) (HIV-1).
Experiment [31] deals with HIV-1 Env of pseudovirus MGRM-A-005 (subtype A) (HIV-1).
Experiment [32] deals with HIV-1 Env of pseudovirus MGRM-A-009 (subtype A) (HIV-1).
The target of experiment [33] is HIV-1 MGRM-A-010 envelope glycoprotein (Env) on pseudovirus (HIV-1).
Experiment [34] addresses HIV-1 MGRM-AG-005 envelope glycoprotein (Env) on pseudovirus (HIV-1).
For experiment [35], the target named is HIV-1 MGRM-C-026 envelope glycoprotein (Env) on pseudovirus (HIV-1).
Experiment [36] concerns the target HIV-1 MGRM-C-028 envelope glycoprotein (Env) on pseudovirus (HIV-1).
Experiment [37] has as its target HIV-1 MGRM-D-001 envelope glycoprotein (Env) on pseudovirus (HIV-1).
Experiment [38] deals with HIV-1 MGRM-D-018 envelope glycoprotein (Env) on pseudovirus (HIV-1).
In experiment [39] the target is HIV-1 MGRM-C-026 Env (HIV-1).
Experiment [40] has as its target HIV-1 Env of pseudovirus MGRM-A-008 (subtype A) (HIV-1).

Chain of 1443_C16 (PG16) (TCN-116) (antibody) (VH): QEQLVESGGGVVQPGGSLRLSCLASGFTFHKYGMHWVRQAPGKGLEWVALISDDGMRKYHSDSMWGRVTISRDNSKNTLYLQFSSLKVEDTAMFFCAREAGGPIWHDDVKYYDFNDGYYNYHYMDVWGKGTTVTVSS
Chain of 1443_C16 (PG16) (TCN-116) (antibody) (VL): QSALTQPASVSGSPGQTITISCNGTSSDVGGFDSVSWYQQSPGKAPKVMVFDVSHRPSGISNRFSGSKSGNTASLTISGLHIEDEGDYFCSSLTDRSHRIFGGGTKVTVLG

For 1443_C16 (PG16) (TCN-116) (antibody), the IC50 (ug/ml), pseudovirus neutralization, TZM-bl assay in [1] stood at 0.004 µg/mL.
Regarding 1496_C09 (PG9) (TCN-109) (antibody), the IC50 (ug/ml), pseudovirus neutralization, TZM-bl assay in experiment [1] was 0.2 µg/mL. Also, the neutralization IC50 in [2] was found to be 0.214 µg/mL. The substance also gave a neutralization IC80 in experiment [2] of 1.13 µg/mL. Moreover, the neutralization IC90 in experiment [2] was found to be 3.21 µg/mL. Besides, the neutralization IC95 in experiment [2] was determined as 9.65 µg/mL. For the same substance, the IC50 (µg/mL), pseudovirus neutralization in experiment [3] was 34.8 µg/mL; in experiment [4], 0.181 µg/mL; in [5], 19.3 µg/mL; in experiment [6], 0.021 µg/mL; in experiment [7], 16.2 µg/mL; in experiment [8], 0.023 µg/mL. In addition, the IC50 (µg/mL), pseudovirus neutralization in experiment [9] amounted to 0.098 µg/mL; in [10], 0.038 µg/mL; in [11] it was 1.67 µg/mL; in [12] it was 0.038 µg/mL; in [13], 23.7 µg/mL; in experiment [14] it was 20.2 µg/mL. The IC50 (µg/mL), pseudovirus neutralization was found to be 0.06 µg/mL in [15]; 0.067 µg/mL in [16]; 3.44 µg/mL in experiment [17]; 0.533 µg/mL in experiment [18]; 0.004 µg/mL in experiment [19]; 0.688 µg/mL in experiment [20]. For the same substance, the IC50 (µg/mL), pseudovirus neutralization stood at 0.216 µg/mL in experiment [21], 0.023 µg/mL in experiment [22] and 6.4 µg/mL in [23]. For the same substance, the IC50, pseudovirus neutralization is 0.006 µg/mL in experiment [24]; 3.6 µg/mL in [25]; 0.05 µg/mL in experiment [26]; 0.141 µg/mL in experiment [27]; 0.258 µg/mL in experiment [28]; 0.164 µg/mL in [29]. The IC50, pseudovirus neutralization in [30] worked out at 1.94 µg/mL; in [31], 0.75 µg/mL; in experiment [32] it was 0.023 µg/mL.
Take 4858_P08 (PGT-123) (antibody): the neutralization IC50 in experiment [33] amounted to 0.492 µg/mL; in experiment [34] it was 0.104 µg/mL; in experiment [35] it was 0.0031 µg/mL; in experiment [36] it was 0.443 µg/mL; in experiment [37], 0.215 µg/mL; in experiment [38] it was 0.0047 µg/mL. Moreover, the neutralization IC80 in [33] was 2.79 µg/mL; in experiment [34], 1.28 µg/mL; in experiment [35], 0.0094 µg/mL; in [36], 2.8 µg/mL; in [37], 0.678 µg/mL; in experiment [38] it was 0.0175 µg/mL. For the same substance, the neutralization IC90 is 6.44 µg/mL in [33]; 6.38 µg/mL in experiment [34]; 0.0183 µg/mL in [35]; 7.11 µg/mL in experiment [36]; 1.31 µg/mL in [37]; 0.0381 µg/mL in experiment [38]. Further, the neutralization IC95 in [33] was above 10 µg/mL; in experiment [34], above 10 µg/mL; in [35] it was 0.0338 µg/mL; in experiment [36], above 10 µg/mL; in experiment [37], 2.33 µg/mL; in [38] it was 0.0791 µg/mL.
In experiment [39], 4877_D15 (PGT-122) (antibody) returned a Neutralization by PGT-122, IC50 of 0.0089 µg/mL; a Neutralization by PGT-122, IC80 of 0.037 µg/mL; a Neutralization by PGT-122, IC90 of 0.0849 µg/mL; a Neutralization by PGT-122, IC95 of 0.181 µg/mL.
Regarding 5141_B17 (PGT-126) (antibody), the IC50, pseudovirus neutralization in experiment [33] amounted to 0.0033 µg/mL; in experiment [34], 1.35 µg/mL; in [35] it was 0.0076 µg/mL; in [36], 0.283 µg/mL; in experiment [37], 0.0639 µg/mL; in experiment [38], 0.0093 µg/mL. Besides, the IC80 (pseudovirus neutralization) in [33] is 0.0137 µg/mL; in [34] it was above 10 µg/mL; in experiment [35], 0.0345 µg/mL; in experiment [36], 2.62 µg/mL; in [37], 0.333 µg/mL; in experiment [38], 0.0391 µg/mL. In addition, the IC90 (pseudovirus neutralization) in experiment [33] was 0.0316 µg/mL; in experiment [34] it was above 10 µg/mL; in experiment [35], 0.0831 µg/mL; in [36], above 10 µg/mL; in experiment [37], 0.832 µg/mL; in [38] it was 0.0918 µg/mL. Further, the IC95 (pseudovirus neutralization) is 0.0687 µg/mL in experiment [33]; above 10 µg/mL in [34]; 0.185 µg/mL in experiment [35]; above 10 µg/mL in experiment [36]; 1.8 µg/mL in experiment [37]; 0.205 µg/mL in experiment [38].
On to PGV04 (antibody), for which the IC50 (µg/mL), pseudovirus neutralization in [3] worked out at 0.309 µg/mL; in experiment [4], 24.2 µg/mL; in experiment [5], 2.26 µg/mL; in experiment [6], 0.322 µg/mL; in [7], 0.125 µg/mL; in experiment [8] it was 0.194 µg/mL. For the same substance, the IC50 (µg/mL), pseudovirus neutralization in [9] was 0.201 µg/mL; in experiment [10], 0.35 µg/mL; in experiment [11], 0.097 µg/mL; in experiment [12], above 50 µg/mL; in experiment [13], 1.76 µg/mL; in experiment [14], 1.01 µg/mL. Also, the IC50 (µg/mL), pseudovirus neutralization in experiment [15] was found to be 0.303 µg/mL; in experiment [16], 0.149 µg/mL; in [17] it was 0.142 µg/mL; in experiment [18] it was 0.047 µg/mL; in [19] it was 0.744 µg/mL; in [20], 0.129 µg/mL. Further, the IC50 (µg/mL), pseudovirus neutralization amounted to 0.164 µg/mL in experiment [21], 0.25 µg/mL in experiment [22] and 5.99 µg/mL in experiment [23]. Also, the IC50, pseudovirus neutralization in experiment [24] amounted to 0.014 µg/mL; in experiment [25], 4.46 µg/mL; in experiment [26], 0.108 µg/mL; in experiment [27], 0.055 µg/mL; in experiment [28] it was 0.31 µg/mL; in [29] it was 0.14 µg/mL. The IC50, pseudovirus neutralization in [30] was determined as 0.128 µg/mL; in experiment [31] it was 0.134 µg/mL; in [40], 0.555 µg/mL; in experiment [32] it was 0.033 µg/mL.

These data come from US20250320281A1.
